Laboratory results reported in patent publication US20230220346A1, “BIOLOGICALLY SYNTHESIZED HYDROXYAPATITE FOR BONE REGENERATION AND TISSUE ENGINEERING” (BIOVENTURES, LLC, priority 2019, published 2023).

Assays:
[1] = test system: MG-63 and Saos-2 cell lines; experiment: Alizarin Red S biomineralization assay: phosphate source comparison, titration, ascorbic acid (FIG. 1A, 1C, 1E-G); format: cell-based, human; conditions: FIG. 1E-G
Experimental: (§1) Biomineralization assays and Alizarin Red S staining: All human and mouse cell lines and human peripheral blood mononuclear cells (MNCs) were maintained in MEMα/10% FBS with penicillin/streptomycin and glutamine in a 37° C. humidified incubator with 5% CO2. […] The medium was replaced after 4 days. Alizarin Red S staining was performed at room temperature by removing the culture medium, washing the cells twice with 1×PBS (pH 7.4), fixing the cells in 10% neutral buffered formalin (Richard-Allan Scientific, Kalamazoo, Mich., USA) for 30 min, rinsing twice with Milli-Q water, staining with Alizarin Red S for 30 min, and destaining twice in Milli-Q water. A ZEISS inverted fluorescence/brightfield microscope equipped with an Infinity 3 digital camera and software system was used for imaging.

[2] = test system: human blood mononuclear cells (MNCs); experiment: Alizarin Red S biomineralization assay in human blood mononuclear cells; format: cell-based; conditions: MEMα/10% FBS with αGP alone or CIP alone (the other missing), 7 days
Experimental: as §1
Coating cell culture plate with Collagen Type I, rat tail for mineralization assays: To coat a 48-well plate with Collagen Type I at 5 μg/cm^2, the stock solution was diluted to 25 μg/mL in 17.5 mM of acetic acid and aliquoted […] into each well. After incubating at room temperature for one hour, the Collagen Type I solution was removed. Each well was rinsed with 1×PBS (pH 7.4) and air-dried at room temperature. Human blood MNCs were suspended in the conditioned media and distributed into each well (1×10^5 cell/well) prior to a 7-day incubation. […]

MG-63 cell line = experiment: Alizarin Red S (ARS) biomineralization assay in MG-63; format: cell-based, human; conditions: MEMα/10% FBS with βGP (2 mM) plus the ALP (1 U/mL), 7 days
Experimental: as §1

Saos-2 cell line = experiment: Alizarin Red S (ARS) biomineralization assay in Saos-2; format: cell-based, human; conditions: MEMα/10% FBS with βGP (2 mM) plus the ALP (1 U/mL), 7 days
Experimental: as §1

Molecule | dose dependence of biomineralization (titration assays) [1] | biomineralization (Alizarin Red S staining) [2] | biomineralization (Alizarin Red S staining) (MG-63 cell line) | biomineralization (Alizarin Red S staining) (Saos-2 cell line)
CIP: calf intestinal alkaline phosphatase (protein, listed as Bos taurus, (1)..(533) Bovine intestine alkaline phosphatase (CIP)) MQGACVLLLLGLHLQLSLGLVPVEEEDPAFWNRQAAQALDVAKKLQPIQTAAKNVILFLGDGMGVPTVTATRILKGQMNGKLGPETPLAMDQFPYVALSKTYNVDRQVPDSAGTATAYLCGVKGNYRTIGVSAAARYNQCKTTRGNEVTSVMNRAKKAGKSVGVVTTTRVQHASPAGAYAHTVNRNWYSDADLPADAQMNGCQDIAAQLVNNMDIDVILGGGRKYMFPVGTPDPEYPDDASVNGVRKRKQNLVQAWQAKHQGAQYVWNRTALLQAADDSSVTHLMGLFEPADMKYNVQQDHTKDPTLQEMTEVALRVVSRNPRGFYLFVEGGRIDHGHHDDKAYMALTEAGMFDNAIAKANELTSELDTLILVTADHSHVFSFGGYTLRGTSIFGLAPSKALDSKSYTSILYGNGPGYALGGGSRPDVNDSTSEDPSYQQQAAVPQASETHGGEDVAVFARGPQAHLVHGVEEETFVAHIMAFAGCVEPYTDCNLPAPTTATSIPDAAHLAASPPPLALLAGAMLLLLAPTLY | depended on the doses | did not occur | mineralized | mineralized
ALPL: Recombinant human tissue-nonspecific alkaline phosphatase (R&D Systems) (protein, listed as Homo sapiens, (1)..(524) Human tissue nonspecific alkaline phosphatase (ALPL)) MISPFLVLAIGTCLTNSLVPEKEKDPKYWRDQAQETLKYALELQKLNTNVAKNVIMFLGDGMGVSTVTAARILKGQLHHNPGEETRLEMDKFPFVALSKTYNTNAQVPDSAGTATAYLCGVKANEGTVGVSAATERSRCNTTQGNEVTSILRWAKDAGKSVGIVTTTRVNHATPSAAYAHSADRDWYSDNEMPPEALSQGCKDIAYQLMHNIRDIDVIMGGGRKYMYPKNKTDVEYESDEKARGTRLDGLDLVDTWKSFKPRYKHSHFIWNRTELLTLDPHNVDYLLGLFEPGDMQYELNRNNVTDPSLSEMVVVAIQILRKNPKGFFLLVEGGRIDHGHHEGKAKQALHEAVEMDRAIGQAGSLTSSEDTLTVVTADHSHVFTFGGYTPRGNSIFGLAPMLSDTDKKPFTAILYGNGPGYKVVGGERENVSMVDYAHNNYQAQSAVPLRHETHGGEDVAVFSKGPMAHLLHGVHEQNYVPHVMAYAACIGANLGHCAPASSAGSLAAGPLLLALALYPLSVLF |  |  | biomineralization was observed | biomineralization was observed
SAP: shrimp hepatopancreas alkaline phosphatase (protein, listed as Pandalus borealis, (1)..(404) Shrimp alkaline phosphatase (rSAP)) MIGRTTFIALFVKVLTIWSFTKGEDCVWDNDVDYPEYPPLILDSSFQLVLPVLEGDQRITSVQSGSELILACPGREISALGSEDAQATCLGGKLVEVDGKEWNIVELGCTKMASETIHRNLGQCGDQDLGIYEVIGFDLPTTGHFYELIRVCFDPANETTIFSENIVHGASIAAKDIDPGRPSFKTSTGFFSVSMISVYSQRNQLELMKNLLGDDELAATIIDPSKQFYFAKGHMAPDADFVTVVEQDATYYYINALPQWQAFNNGNWKYLEYDTRDLAEKHGTDLTVYSGGWGVLELEDINGNPVEIYLGLAQDKKVVPAPALTWKVIYEKDTNRAAAIVGINNPHITTAPEPLCTDICSSLTWLDFDFGDLVHGYTYCCSVADLRAAIPNVPDLGDVDILDE |  |  | mineralized | mineralized
